The record followed here is article doi:10.1101/2025.09.09.675266.

Values joined by “and” are separate entries in the source; they are usually repeats but may differ in a detail not shown here. Identical values can stand only once. Like-named read-outs stand apart in the source and are kept apart here.

Test [1] deals with RSV IN (1-269) (Rous sarcoma virus (Prague A)). In words: SEC.
Test [2] deals with RSV IN (1-278 aa) (Rous sarcoma virus (Prague A)). In words: SEC. (Size exclusion chromatography separates by hydrodynamic size, large species first.)
Test [3] has the same target.

What is called stoichiometry N is a count of units in the complex or per binding partner. RSV IN (1-269) (domain or fragment) gave a stoichiometry N in test [1] of 4.
For RSV IN (1-278 aa) (domain or fragment), the stoichiometry N in test [2] is 4 and 8; in test [3], 2.
